Tests used:
Assay in all cases: MST
XPA DBD F112C = XPA DBD F112C (Homo sapiens, UniProt P23025 98-239, F112C)
XPA DBD D114Y = XPA DBD D114Y (Homo sapiens, UniProt P23025 98-239, D114Y)
XPA DBD R130I = XPA DBD R130I (Homo sapiens, UniProt P23025 98-239, R130I)
XPA DBD M113I = XPA DBD M113I (Homo sapiens, UniProt P23025 98-239, M113I)
XPA DBD WT = XPA DBD WT (Homo sapiens, UniProt P23025 98-239)
XPA DBD Y148D = XPA DBD Y148D (Homo sapiens, UniProt P23025 98-239, Y148D)
Chain of XPA DBD Y148D (P23025 98-239 Y148D): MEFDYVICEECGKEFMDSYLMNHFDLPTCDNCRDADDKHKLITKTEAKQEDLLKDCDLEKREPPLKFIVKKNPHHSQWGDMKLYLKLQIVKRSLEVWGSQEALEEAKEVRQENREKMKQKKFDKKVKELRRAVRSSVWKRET

Chain of XPA DBD M113I (P23025 98-239 M113I): as the sequence (P23025 98-239 Y148D) above, with M16I, D51Y counted along it
Chain of XPA DBD R130I (P23025 98-239 R130I): as the sequence (P23025 98-239 Y148D) above, with R33I, D51Y counted along it
Chain of XPA DBD WT (P23025 98-239): as the sequence (P23025 98-239 Y148D) above, with D51Y counted along it
Chain of XPA DBD F112C (P23025 98-239 F112C): as the sequence (P23025 98-239 Y148D) above, with F15C, D51Y counted along it
Chain of XPA DBD D114Y (P23025 98-239 D114Y): as the sequence (P23025 98-239 Y148D) above, with D17Y, D51Y counted along it

B1: NER junction mimic hairpin, 8 bp with 4 nt overhang (structured_DNA)
DNA: TTTTGCGGCCGCTTTTGCGGCCGC
Question: Which results are given for B1?
Answer: Kd (XPA DBD F112C): 9.2 ± 2.2 µM; Kd (XPA DBD D114Y): 8.8 ± 1.7 µM; Kd (XPA DBD R130I): 38 ± 22 µM; Kd (XPA DBD M113I): 12 ± 1.9 µM; Kd (XPA DBD WT): 7.7 ± 3.7 µM; binding result (XPA DBD Y148D): no binding

From PMC10946055
